The values below come from PMC4649906, “Unraveling the molecular architecture of a G protein-coupled receptor/β-arrestin/Erk module complex” (Scientific Reports, 2015).

For the assay, the target named is T1, human recombinant β-arrestin 1 (human, UniProt P49407 1-418).
T1 construct: β-arrestin 1, human, recombinant; Used as the prey (25 ng) in the GST pull-downs; source: bought: Gentaur (human recombinant)
Nature of the assay: pull-down; GST fusion protein immobilised on Glutathione Sepharose 4B beads; 25 ng human recombinant β-arrestin 1 as prey, with or without 0.5 mM peptide; 20 mM Hepes pH 7.9, 50 mM KCl, 2.5 mM MgCl2, 1 mM DTT, 10% glycerol, protease and phosphatase inhibitors; 1 hour at 4 °C; six washes; blot with anti-β-arrestin, quantified as the ratio of β-arrestin 1 over GST fusion. The following applies: both partners purified.

T1 sequence (P49407 whole entry): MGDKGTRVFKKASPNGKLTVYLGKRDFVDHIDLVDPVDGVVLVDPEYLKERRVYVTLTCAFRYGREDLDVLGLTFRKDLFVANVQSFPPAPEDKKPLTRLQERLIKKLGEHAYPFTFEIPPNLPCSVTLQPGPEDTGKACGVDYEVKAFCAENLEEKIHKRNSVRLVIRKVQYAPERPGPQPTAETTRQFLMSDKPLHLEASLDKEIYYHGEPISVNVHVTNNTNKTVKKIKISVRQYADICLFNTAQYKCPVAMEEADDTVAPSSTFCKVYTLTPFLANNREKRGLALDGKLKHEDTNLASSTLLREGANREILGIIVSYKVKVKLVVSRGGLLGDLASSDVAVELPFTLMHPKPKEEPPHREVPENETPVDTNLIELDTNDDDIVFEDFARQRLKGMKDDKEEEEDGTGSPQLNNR

B1: ERK interfering peptide (peptide)
peptide: ISPFEHQTY
notes: stretch of ERK2 at the predicted interface with β-arrestin 1; Printed as H-ISPFEHQTY-OH (free ends); Resuspended in H2O + 5% DMSO and used at 0.5 mM; source: synthetic peptide (Genecust laboratories)
Take B1: the binding result is on record as “binds”.

B2: Raf1 interfering peptide (peptide)
peptide: KQRTVVNVRN
notes: stretch of Raf1 at the predicted interface with β-arrestin 1, within the RBD; Printed as H-KQRTVVNVRN-OH (free ends); Resuspended in H2O and used at 0.5 mM; source: synthetic peptide (Genecust laboratories)
Take B2: the binding result is “binds”.
